Columns and labels:
Format in all cases: biochemical
[1] = tested on: single-stranded DNA initiator (SEQ ID NO: 7); test: Addition of 3′-O-azidomethyl nucleotide triphosphates to a DNA initiator by TdT orthologs, capillary electrophoresis; settings: for ability to add 3′-O reversibly terminated (blocked) nucleotide triphosphates: 3′-O-azidomethyl nucleotide triphosphate, FIG. 3; for performance in adding 3′-O-azidomethyl dTTP and 3′-O-azidomethyl dCTP compared to Bos taurus TdT: 20 min, capillary electrophoresis
Protocol: (A) A single-stranded DNA initiator was incubated with TdT with the indicated species for 60 min in the above mentioned buffer and reaction conditions. Reactions were then analysed by capillary electrophoresis and a subset of chromatograms are shown. (B) Fraction of DNA initiator strand converted to N+1 species (addition of 3′-O-azidomethyl dTTP) in one hour. (C) Three TdT orthologs were reacted with 3′-O-azidomethyl dTTP and 3′-O-azidomethyl dCTP for 20 min.
A single-stranded DNA initiator (SEQ ID NO: 7) was incubated with purified, recombinant TdT orthologs, required salts (50 mM potassium acetate, 20 mM tris acetate pH 7.9, 1.5 mM cobalt chloride, Saccharomyces cerevisiae inorganic pyrophosphatase), and 3′-O-azidomethyl dTTP at 37° C. for 60 min. The 3′-blocked nucleotide triphosphate was at a concentration of 1 mM and the DNA initiator at 200 nM and analysed via capillary electrophoresis as shown in FIG. 3(A).
The experiment was repeated with the exception that both 3′-O-azidomethyl dTTP and 3′-O-azidomethyl dCTP was used as the 3′-blocked nucleotide triphosphate. The reaction was stopped after 20 min and analysed via capillary electrophoresis.

[2] = tested on: single-stranded DNA initiator (SEQ ID NO: 7); test: Engineered versus wild-type Lepisosteus oculatus TdT, addition of 3′-reversibly blocked dNTP measured by PAGE; settings: 3′-reversibly blocked dCTP, dGTP or dTTP, 1 mM, 37° C., 20 min
Protocol: Addition of the dNTP was measured by PAGE and the conversion relative to wild-type TdT was plotted.
A single-stranded DNA initiator (SEQ ID NO: 7) was incubated with either a purified wild-type Lepisosteus oculatus TdT or a purified, recombinant engineered form of Lepisosteus oculatus TdT (SEQ ID NO: 8), required salts, cobalt chloride, Saccharomyces cerevisiae inorganic pyrophosphatase, and 3′-O-azidomethyl dTTP at 37° C. for 20 min.

[3] = tested on: single-stranded DNA initiator (SEQ ID NO: 7); test: Engineered Lepisosteus oculatus TdT versus Bos taurus TdT, denaturing PAGE gel; settings: 3′-O-azidomethyl dTTP, 37° C., 10 min
Protocol: A single-stranded DNA initiator (SEQ ID NO: 7) was incubated with a purified, recombinant engineered form of Lepisosteus oculatus TdT, required salts, cobalt chloride, Saccharomyces cerevisiae inorganic pyrophosphatase, and 3′-O-azidomethyl dTTP at 37° C. for 10 min.

B1: Bos taurus TdT: commercially available terminal deoxynucleotidyl transferase from Bos taurus (UniProt: P06526) (protein, listed as Bos taurus)
chain: MDPLCTASSGPRKKRPRQVGASMASPPHDIKFQNLVLFILEKKMGTTRRNFLMELARRKGFRVENELSDSVTHIVAENNSGSEVLEWLQVQNIRASSQLELLDVSWLIESMGAGKPVEITGKHQLVVRTDYSATPNPGFQKTPPLAVKKISQYACQRKTTLNNYNHIFTDAFEILAENSEFKENEVSYVTFMRAASVLKSLPFTIISMKDTEGIPCLGDKVKCIIEEIIEDGESSEVKAVLNDERYQSFKLFTSVFGVGLKTSEKWFRMGFRSLSKIMSDKTLKFTKMQKAGFLYYEDLVSCVTRAEAEAVGVLVKEAVWAFLPDAFVTMTGGFRRGKKIGHDVDFLITSPGSAEDEEQLLPKVINLWEKKGLLLYYDLVESTFEKFKLPSRQVDTLDHFQKCFLILKLHHQRVDSSKSNQQEGKTWKAIRVDLVMCPYENRAFALLGWTGSRQFERDIRRYATHERKMMLDNHALYDKTKRVFLKAESEEEIFAHLGLDYIEPWERNA
B1 was tested, and the “ability to add 3′-O reversibly terminated (blocked) nucleotide triphosphates” value [1] was “only efficiently adds irreversibly blocked nucleotides” and the “ability to add 3′-O reversibly terminated (blocked) nucleotide triphosphates” value ([1]; listed as recombinant TdT sourced from calf thymus) was “unable to add 3′-O-terminated nucleotide triphosphates in a quantitative fashion”.

B2: engineered variant (SEQ ID NO: 8): variant of SEQ ID NO: 2 engineered for improved activity by alteration of the amino acid sequence (protein)
chain: MLHIPIFPPIKKRQKLPESRNSCKYEVKFSEVAIFLVERKMGSSRRKFLTNLARSKGFRIEDVLSDAVTHVVAENNSADELLQWLQNSSLGDLSKIEVLDISWFTECMGAGKPVQVEARHCLVKSCPVIDQYLEPSTVETVSQYACQRRTTMENHNQIFTDAFAILAENAEFNESEGPCLAFMRAASLLKSLPHAISSSKDLEGLPCLGDQTKAVIEDILEYGQCSKVQDVLCDDRYQTIKLFTSVFGVGLRTAEKWYRKGFHSLEEVQADNAIHFTKMQKAGFLYYDDISAAVCKAEAQAIGQIVEETVRLIAPDAIVTLTGGFRRGKECGHDVDFLITTPEMGKEVWLLNRLINRLQNQGILLYYDIVESTFDKTRLPCRKFEAMDHFQKCFAIIKLKKELAAGRVQKDWKAIRVDFVAPPVDNFAFALLGWTGSRQFERDLRRFARHERKMLLDNHALYDKTKKIFLPAKTEEDIFAHLGLDYIDPWQRNA
For B2, the “conversion of initiator strand of length n to n+1 versus wild-type Lepisosteus oculatus TdT” value [2] was “improved ability to convert the initiator strand of length n to a strand of length n+1”, the “incorporation of 3′-reversibly blocked nucleotides versus Bos Taurus TdT” value [3] was “much better than Bos Taurus TdT” and the “incorporation of 3′-reversibly blocked nucleotides versus wild-type Lepisosteus oculatus TdT” value [3] was “better than the wild-type Lepisosteus oculatus TdT”.

B3: Lepisosteus oculatus TdT: terminal deoxynucleotidyl transferase sequence from Lepisosteus oculatus (UniProt: W5MK82) (protein, listed as Lepisosteus oculatus)
chain: MLHIPIFPPIKKRQKLPESRNSCKYEVKFSEVAIFLVERKMGSSRRKFLTNLARSKGFRIEDVLSDAVTHVVAEDNSADELWQWLQNSSLGDLSKIEVLDISWFTECMGAGKPVQVEARHCLVKSCPVIDQYLEPSTVETVSQYACQRRTTMENHNQIFTDAFAILAENAEFNESEGPCLAFMRAASLLKSLPHAISSSKDLEGLPCLGDQTKAVIEDILEYGQCSKVQDVLCDDRYQTIKLFTSVFGVGLKTAEKWYRKGFHSLEEVQADNAIHFTKMQKAGFLYYDDISAAVCKAEAQAIGQIVEETVRLIAPDAIVTLTGGFRRGKECGHDVDFLITTPEMGKEVWLLNRLINRLQNQGILLYYDIVESTFDKTRLPCRKFEAMDHFQKCFAIIKLKKELAAGRVQKDWKAIRVDFVAPPVDNFAFALLGWTGSRQFERDLRRFARHERKMLLDNHALYDKTKKYLKKKTTNNYLALNDVCSDLSEWHYKG
In the case of B3, the “performance in adding 3′-O-azidomethyl dTTP and 3′-O-azidomethyl dCTP compared to Bos taurus TdT” value [1] is reported as “consistently perform better compared to Bos taurus TdT”.

B4: Sarcophilus harrisii TdT: terminal deoxynucleotidyl transferase sequence from Sarcophilus harrisii (UniProt: G3VQ55) (protein, listed as Sarcophilus harrisii)
chain: MHRIRTTDSDHGKKRQKKMDAISSKLYEIKFHEFVLFILEKKMGATRRTFLMDLARKKGFRVESELSNSVTHIVAENNSGSDVLAWLEAHKLETTAHFELLDVSWLIECMKVGKPVDTKGKYQLVESSIASANPDPNEGMLKIQSPAMNAISPYACQRRTTLNNHNQRFTDAFEILAKNYEFRENHGHCLTFLRATSVLKCLPFAIVSMKDAEGLPWIGDEVKGIMEEIIEDGQSLEVQAVLNDERYQAFKLFTSVFGVGLKTAEKWYRMGFRTLSKIQSDKSLKFTKMQKAGFLYYEDLISCVSKAEADAVSLIVKEAVWTFLPDALITITGGFRRGKEFGHDVDFLITSPGGEKEQVDQLLQKVTNLWEKQGLLLYYDLMESTFEDLKLPSRKVDALDHFQKCFLILKLYCQRGDRSKWEGPEGSNGLQTKNWKAIRVDLVVCPYDRYAYALLGWSGSRQFERDLRRYATHEKKMMLDNHALYDKTKRTFLKAESEEEIFSHLGLEYIEPWERNA
In the case of B4, the “performance in adding 3′-O-azidomethyl dTTP and 3′-O-azidomethyl dCTP compared to Bos taurus TdT” value [1] is reported as “consistently perform better compared to Bos taurus TdT”.

— US11807887B2, “Compositions and methods related to nucleic acid synthesis” (Nuclera Ltd., priority 2015, dated 2023)
